Results: publication PMC10491405 (PLOS Pathogens, 2023)

B1: human monoclonal stem antibody FI6v3 (antibody, V domains shown)
VH: QVQLVESGGGVVQPGRSLRLSCAASGFTFSTYAMHWVRQAPGKGLEWVAVISYDANYKYYADSVKGRFTISRDNSKNTLYLQMNSLRAEDTAVYYCAKDSQLRSLLYFEWLSQGYFDYWGQGTLVTVSS
VL: not shown
notes: also called mAb FI6v3; source: VRC, NIH
B2: mouse monoclonal stem antibody C179 (antibody, V domains shown)
VH: EVKLVESGGGLVQPGGSLRLSCGTSGFTLTDDYMTWVRQPPGKALEWLGFIRDRANGYTTEYSASVKGRFTISRDNSQSIVYLQMNTLRVEDSATYYCARPKGYFPYAMDYWGQGTSVIVSS
VL: DIQMTQSPASQSASLGESVTITCLASQTIGTWLAWYQQKPGKSPQLLIYAATSLADGVPSRFSGSGSGTKFSFKISSLQAEDFVSYYCQQLYSTPWTFGGGTRLEIK
notes: source: purified from hybridoma from mouse ascitic fluid

Experiments:
Assay in all cases: ELISA
Conditions in all cases: both partners purified
[1] = target: T1, full-length recombinant H1 HA protein (A/California/07/09, H1N1) (Influenza A virus A/California/07/2009 …, UniProt C3W5X2)
T1 construct: source: bought: Protein Sciences Corporation (purified recombinant full-length HA)

[2] = target: recombinant HA1 head protein (rHA1) of H1 HA (A/California/07/09, H1N1) (Influenza A virus A/California/07/2009 …, UniProt C3W5X2)
[3] = target: T2, H1 rHA ectodomain (trimeric HA ectodomain, A/California/07/09, H1N1) (Influenza A virus A/California/07/2009 …, UniProt C3W5X2)
T2 construct: source: bought: International Reagent Resource and Sino Biological (HA ectodomains)

Binder | binding result [1] | binding result [2] | binding result [3]
B1 | binds |  | 
B2 | binds | no binding (tested: 0.5 μg/ml) | binds
